Bridge positions count the residues as written; N and C are the ends. Ends that are not written are not given here. COCH2 = acetyl group that carries the bridge

Here are results for 31 molecules from US20260008815A1, “CYCLIC PEPTIDE OR SALT THEREOF, AND USES THEREOF” (FUJIFILM Corporation, priority 2023, published 2026).

B1: cyclic peptide SEQ ID NO: 212 (peptide)
peptide: YCEENYLYPEQYQYFIYFK(COCH2)Y
modifications: thioether 2-19 (inferred)
B2: cyclic peptide SEQ ID NO: 237 (peptide)
peptide: YCEENYLDPPQYQYFIYFK(COCH2)Y
modifications: thioether 2-19 (inferred)
B3: cyclic peptide SEQ ID NO: 229 (peptide)
peptide: YCEENYLDQEQYQYFIYFK(COCH2)Y
modifications: thioether 2-19 (inferred)
B4: cyclic peptide SEQ ID NO: 223 (peptide)
peptide: YCEENYLDIEQYQYFIYFK(COCH2)Y
modifications: thioether 2-19 (inferred)
B5: cyclic peptide SEQ ID NO: 222 (peptide)
peptide: YCEENYLDLEQYQYFIYFK(COCH2)Y
modifications: thioether 2-19 (inferred)
B6: cyclic peptide SEQ ID NO: 219 (peptide)
peptide: YCEENYLRPEQYQYFIYFK(COCH2)Y
modifications: thioether 2-19 (inferred)
B7: cyclic peptide SEQ ID NO: 215 (peptide)
peptide: YCEENYLQPEQYQYFIYFK(COCH2)Y
modifications: thioether 2-19 (inferred)
B8: cyclic peptide SEQ ID NO: 228 (peptide)
peptide: YCEENYLDNEQYQYFIYFK(COCH2)Y
modifications: thioether 2-19 (inferred)
B9: cyclic peptide SEQ ID NO: 233 (peptide)
peptide: YCEENYLDEEQYQYFIYFK(COCH2)Y
modifications: thioether 2-19 (inferred)
B10: cyclic peptide SEQ ID NO: 214 (peptide)
peptide: YCEENYLNPEQYQYFIYFK(COCH2)Y
modifications: thioether 2-19 (inferred)
B11: cyclic peptide SEQ ID NO: 225 (peptide)
peptide: YCEENYLDFEQYQYFIYFK(COCH2)Y
modifications: thioether 2-19 (inferred)
B12: cyclic peptide SEQ ID NO: 234 (peptide)
peptide: YCEENYLDREQYQYFIYFK(COCH2)Y
modifications: thioether 2-19 (inferred)
B13: cyclic peptide SEQ ID NO: 232 (peptide)
peptide: YCEENYLDDEQYQYFIYFK(COCH2)Y
modifications: thioether 2-19 (inferred)
B14: cyclic peptide SEQ ID NO: 238 (peptide)
peptide: YCEENYLDPLQYQYFIYFK(COCH2)Y
modifications: thioether 2-19 (inferred)
B15: cyclic peptide SEQ ID NO: 241 (peptide)
peptide: YCEENYLDPFQYQYFIYFK(COCH2)Y
modifications: thioether 2-19 (inferred)
B16: cyclic peptide SEQ ID NO: 226 (peptide)
peptide: YCEENYLDYEQYQYFIYFK(COCH2)Y
modifications: thioether 2-19 (inferred)
B17: cyclic peptide SEQ ID NO: 218 (peptide)
peptide: YCEENYLEPEQYQYFIYFK(COCH2)Y
modifications: thioether 2-19 (inferred)
B18: cyclic peptide SEQ ID NO: 213 (peptide)
peptide: YCEENYLWPEQYQYFIYFK(COCH2)Y
modifications: thioether 2-19 (inferred)
B19: cyclic peptide SEQ ID NO: 216 (peptide)
peptide: YCEENYLSPEQYQYFIYFK(COCH2)Y
modifications: thioether 2-19 (inferred)
B20: cyclic peptide SEQ ID NO: 220 (peptide)
peptide: YCEENYLHPEQYQYFIYFK(COCH2)Y
modifications: thioether 2-19 (inferred)
B21: cyclic peptide SEQ ID NO: 239 (peptide)
peptide: YCEENYLDPIQYQYFIYFK(COCH2)Y
modifications: thioether 2-19 (inferred)
B22: cyclic peptide SEQ ID NO: 235 (peptide)
peptide: YCEENYLDHEQYQYFIYFK(COCH2)Y
modifications: thioether 2-19 (inferred)
B23: cyclic peptide SEQ ID NO: 236 (peptide)
peptide: YCEENYLDPGQYQYFIYFK(COCH2)Y
modifications: thioether 2-19 (inferred)
B24: cyclic peptide SEQ ID NO: 240 (peptide)
peptide: YCEENYLDPVQYQYFIYFK(COCH2)Y
modifications: thioether 2-19 (inferred)
B25: cyclic peptide SEQ ID NO: 224 (peptide)
peptide: YCEENYLDVEQYQYFIYFK(COCH2)Y
modifications: thioether 2-19 (inferred)
B26: cyclic peptide SEQ ID NO: 242 (peptide)
peptide: YCEENYLDPYQYQYFIYFK(COCH2)Y
modifications: thioether 2-19 (inferred)
B27: cyclic peptide SEQ ID NO: 231 (peptide)
peptide: YCEENYLDTEQYQYFIYFK(COCH2)Y
modifications: thioether 2-19 (inferred)
B28: cyclic peptide SEQ ID NO: 221 (peptide)
peptide: YCEENYLDGEQYQYFIYFK(COCH2)Y
modifications: thioether 2-19 (inferred)
B29: cyclic peptide SEQ ID NO: 230 (peptide)
peptide: YCEENYLDSEQYQYFIYFK(COCH2)Y
modifications: thioether 2-19 (inferred)
B30: cyclic peptide SEQ ID NO: 217 (peptide)
peptide: YCEENYLTPEQYQYFIYFK(COCH2)Y
modifications: thioether 2-19 (inferred)
B31: cyclic peptide SEQ ID NO: 227 (peptide)
peptide: YCEENYLDWEQYQYFIYFK(COCH2)Y
modifications: thioether 2-19 (inferred)

In the experiment the target is T1, Recombinant Human FGFR2 alpha (IIIc) Fc Chimera Protein, CF (R&D systems, 712-FR-050) (human, UniProt P21802 22-377).
T1 construct: bought; not shown: Fc part of the chimera
T1 sequence (P21802 22-377, change not shown): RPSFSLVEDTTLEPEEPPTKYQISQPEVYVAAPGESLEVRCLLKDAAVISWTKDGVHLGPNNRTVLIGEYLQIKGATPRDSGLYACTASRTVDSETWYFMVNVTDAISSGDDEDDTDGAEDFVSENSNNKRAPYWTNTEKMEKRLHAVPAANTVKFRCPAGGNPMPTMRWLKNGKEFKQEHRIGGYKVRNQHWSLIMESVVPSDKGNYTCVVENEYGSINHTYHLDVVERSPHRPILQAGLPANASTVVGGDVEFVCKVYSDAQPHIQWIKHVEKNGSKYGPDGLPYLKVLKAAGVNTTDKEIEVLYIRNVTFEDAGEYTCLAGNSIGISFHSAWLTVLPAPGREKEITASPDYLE
Description: ELISA on plate-bound FGFR2-Fc. As to the method:
First, 5 ng of Recombinant Human FGFR2 alpha (IIIc) Fc Chimera Protein (R&D systems, 712-FR-050) was immobilized in each well of a 96-well plate, and blocked with Pierce Protein-Free (PBS) Blocking Buffer (Thermo, 37572), and a peptide diluted with Can Get Signal Immunoreaction Enhancer Solution I (TOYOBO, NKB-101) was then added and reacted at room temperature for 3 hours. After washing with 0.05% Tween 20-containing phosphate buffered saline (PBS), an anti-Myc antibody (Cell Signaling, 14038S) diluted with Can Get Signal Immunoreaction Enhancer Solution II (TOYOBO, NKB-101) was added and reacted at room temperature for 2 hours. After washing with 0.05% Tween 20-containing PBS, SuperSignal ELISA Femto Substrate (Thermo, 37075) was added, and the luminescence amount was measured. The dose-response relationship was calculated from using the difference between the luminescence amount in the well in which FGFR was immobilized and the luminescence amount in the well in which FGFR was not immobilized, and the concentration of the peptide at the time of reaction, and the binding affinity to FGFR was evaluated according to the following evaluation criteria. The evaluation result preferably satisfies the evaluation criteria A, B, or C.
In the case of B1, the “ELISA luminescence signal at 10 nmol/L peptide, relative to SEQ ID NO: 47 (=1)” value was ≥ 0.7 ratio.

For the molecule B2, the “ELISA luminescence signal at 10 nmol/L peptide, relative to SEQ ID NO: 47 (=1)” value is ≥ 0.7 ratio.

B3: the “ELISA luminescence signal at 10 nmol/L peptide, relative to SEQ ID NO: 47 (=1)” value was ≥ 0.7 ratio.

With B4, the “ELISA luminescence signal at 10 nmol/L peptide, relative to SEQ ID NO: 47 (=1)” value was ≥ 0.7 ratio.

As for B5, the “ELISA luminescence signal at 10 nmol/L peptide, relative to SEQ ID NO: 47 (=1)” value is ≥ 0.7 ratio.

On to B6, for which the “ELISA luminescence signal at 10 nmol/L peptide, relative to SEQ ID NO: 47 (=1)” value lay within 0.1 to 0.5 ratio.

For the molecule B7, the “ELISA luminescence signal at 10 nmol/L peptide, relative to SEQ ID NO: 47 (=1)” value was ≥ 0.7 ratio.

On to B8, for which the “ELISA luminescence signal at 10 nmol/L peptide, relative to SEQ ID NO: 47 (=1)” value is ≥ 0.7 ratio.

Take B9: the “ELISA luminescence signal at 10 nmol/L peptide, relative to SEQ ID NO: 47 (=1)” value is ≥ 0.7 ratio.

Regarding B10, the “ELISA luminescence signal at 10 nmol/L peptide, relative to SEQ ID NO: 47 (=1)” value is ≥ 0.7 ratio.

As for B11, the “ELISA luminescence signal at 10 nmol/L peptide, relative to SEQ ID NO: 47 (=1)” value is ≥ 0.7 ratio.

On to B12, for which the “ELISA luminescence signal at 10 nmol/L peptide, relative to SEQ ID NO: 47 (=1)” value was ≥ 0.7 ratio.

With B13, the “ELISA luminescence signal at 10 nmol/L peptide, relative to SEQ ID NO: 47 (=1)” value was ≥ 0.7 ratio.

In the case of B14, the “ELISA luminescence signal at 10 nmol/L peptide, relative to SEQ ID NO: 47 (=1)” value is ≥ 0.7 ratio.

Consider B15, for which the “ELISA luminescence signal at 10 nmol/L peptide, relative to SEQ ID NO: 47 (=1)” value was ≥ 0.7 ratio.

Turning to B16, the “ELISA luminescence signal at 10 nmol/L peptide, relative to SEQ ID NO: 47 (=1)” value is ≥ 0.7 ratio.

On to B17, for which the “ELISA luminescence signal at 10 nmol/L peptide, relative to SEQ ID NO: 47 (=1)” value was ≥ 0.7 ratio.

In the case of B18, the “ELISA luminescence signal at 10 nmol/L peptide, relative to SEQ ID NO: 47 (=1)” value is 0.5 to 0.7 ratio.

Turning to B19, the “ELISA luminescence signal at 10 nmol/L peptide, relative to SEQ ID NO: 47 (=1)” value is ≥ 0.7 ratio.

As to B20, the “ELISA luminescence signal at 10 nmol/L peptide, relative to SEQ ID NO: 47 (=1)” value was ≥ 0.7 ratio.

Take B21: the “ELISA luminescence signal at 10 nmol/L peptide, relative to SEQ ID NO: 47 (=1)” value is ≥ 0.7 ratio.

Regarding B22, the “ELISA luminescence signal at 10 nmol/L peptide, relative to SEQ ID NO: 47 (=1)” value was ≥ 0.7 ratio.

For B23, the “ELISA luminescence signal at 10 nmol/L peptide, relative to SEQ ID NO: 47 (=1)” value fell in the range of 0.1 to 0.5 ratio.

B24: the “ELISA luminescence signal at 10 nmol/L peptide, relative to SEQ ID NO: 47 (=1)” value is ≥ 0.7 ratio.

Turning to B25, the “ELISA luminescence signal at 10 nmol/L peptide, relative to SEQ ID NO: 47 (=1)” value was ≥ 0.7 ratio.

In the case of B26, the “ELISA luminescence signal at 10 nmol/L peptide, relative to SEQ ID NO: 47 (=1)” value was ≥ 0.7 ratio.

Consider B27, for which the “ELISA luminescence signal at 10 nmol/L peptide, relative to SEQ ID NO: 47 (=1)” value was ≥ 0.7 ratio.

Turning to B28, the “ELISA luminescence signal at 10 nmol/L peptide, relative to SEQ ID NO: 47 (=1)” value is ≥ 0.7 ratio.

In the case of B29, the “ELISA luminescence signal at 10 nmol/L peptide, relative to SEQ ID NO: 47 (=1)” value was ≥ 0.7 ratio.

B30: the “ELISA luminescence signal at 10 nmol/L peptide, relative to SEQ ID NO: 47 (=1)” value was ≥ 0.7 ratio.

B31: the “ELISA luminescence signal at 10 nmol/L peptide, relative to SEQ ID NO: 47 (=1)” value was ≥ 0.7 ratio.
